# Reference: article PMC8488606, “The citron homology domain as a scaffold for Rho1 signaling” (Proceedings of the National Academy of Sciences of the …, 2021)
# T1: Recombinant His6-Rom2 CNH (862-1194), citron homology domain of Aspergillus fumigatus Rom2 (Aspergillus fumigatus, UniProt Q4WUI2 862-1194, biotinylated using the EZLink NHS-Peg4-Biotin reagent (for BLI))
# T1 construct: Rom2 (guanine nucleotide exchange factor of Rho1), Aspergillus fumigatus, UniProt Q4WUI2, CNH domain construct residues 862-1194; Cloned into a noncleavable 6His version of pGEX6P1 with primers P23 and P24, then the C terminus was truncated with primers P19 and P20; The N-terminal end of the tag is read from the printed name 'His6-Rom2 CNH'; also called AfRom2 CNH; AfRom2CNH; source: E. coli BL21 …
# T1 sequence (looked up): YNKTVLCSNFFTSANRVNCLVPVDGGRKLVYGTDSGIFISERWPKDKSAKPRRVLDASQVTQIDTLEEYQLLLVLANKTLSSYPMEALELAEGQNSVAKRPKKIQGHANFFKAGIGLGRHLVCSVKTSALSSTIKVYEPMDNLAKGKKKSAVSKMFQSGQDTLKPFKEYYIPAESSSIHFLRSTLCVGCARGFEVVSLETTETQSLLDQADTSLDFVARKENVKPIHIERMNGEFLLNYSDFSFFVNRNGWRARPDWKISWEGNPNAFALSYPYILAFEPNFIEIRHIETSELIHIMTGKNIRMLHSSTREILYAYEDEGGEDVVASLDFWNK
# Legend:
# [1] = target: T1, Recombinant His6-Rom2 CNH (862-1194), …; assay: BLI; biotinylated AfRom2 CNH on super streptavidin (SSA) biosensors, AfRho1 with GDP or GTPγS (saturating nucleotide) in solution, Octet Red 384; 25 mM Hepes, 150 mM NaCl, 0.5 mM TCEP pH 7.5; six-point series from 1 mM in threefold dilutions; conditions: both partners purified
# [2] = target: T1, Recombinant His6-Rom2 CNH (862-1194), …; assay: BLI; biotinylated AfRom2 CNH on super streptavidin (SSA) biosensors, apo AfRho1 (no nucleotide) in solution, Octet Htx; 25 mM Hepes, 150 mM NaCl, 0.5 mM TCEP pH 7.5; six-point series from 1 mM in threefold dilutions; conditions: both partners purified
binder,measurement,setting,value
"Recombinant AfRho1 (residues 1 to 181) with F25N mutation (enzyme, Rho1 GTPase, Aspergillus fumigatus, residues 1 to 181, F25N introduced for protein stability; Expressed from pGEX6P1; GST removed with PreScission protease; Used without nucleotide, with GDP or with GTPγS in BLI; also called apo AfRho1; AfRho1-GDP; source: E. coli BL21 (non-DE3), purified (Glutathione-Sepharose, PreScission cleavage, Superdex 75)) not shown",Kd,[1],200 µM
same,Kd,[2],80 µM
